Data taken from the DeepSol protein solubility set.

Test: soluble on expression in E. coli; label from the status in PepcDB or PDB records

Sequence: MGSDKIHHHHHHINKDNITTDTAEESKQQDSNKKQELPTATYMGGSNTITEVCDELGSAGASHVDTFKEWVTDFADSAGKNAKLKDTWSDAYKMKADTVKCMDGWEKKHDYSDADCRMTAFLLLDGLLHAQSTEDSYSGTYLMFDTEAIDNVDRYEIIRQNKDMFTTLYGEKSITDDKHPEKTFSDNWKKYGFQIDSNCISLISIAIYDPDSDAMFVGHTGVLIKYSDYYLFVEKIAFEQPYQATKVNNMDELLSILSLRPEYFGEEKEAGPFVYNNGDYVGTLELQG
- soluble on expression in E. coli: not soluble

Sequence: SLFHLLGAQQNQKLKRRRFFCPVCGGELAVKLGLQKAPHFAHKQNKSCAIDIEPESAYHLEGKRQLYVWLKTQRASPILEPYIRTINQRPDVMARIKEHMLAVEYQCATIAPDVFQKRTEGFKQEGIIPQWIMGYSRLKRTASSFYQLSTFHWQFINASPYRELICYCPERRSFLRLSHIIPFYTNHSYSSVQTIPIHRAGAGDLFFTEPKPSIQYSGWTKAIHRFRHKPHRFNSKETNRLRLLFYEKRQTPFSFLPTEVFVPVRKGAVFKSPVFVWQGFLYLFMTDLGGKRAPIRFSAVLQQCKLHIHNKNIALRSECSEECLSEAVKQYIDFLCKKGFLRETQKEVYVLNQPAGGIHSMQDLIERDRSCFIE
- soluble on expression in E. coli: soluble

Sequence: MADEQEIMCKLESIKEIRNKTLQMEKIKARLKAEFEALESEERHLKEYKQEMDLLLQEKMAHVEELRLIHADINVMENTIKQSENDLNKLLESTRRLHDEYKPLKEHVDALRMTLGLQRLPDLCEEEEKLSLDYFEKQKAEWQTEPQEPPIPESLAAAAAAAQQLQVARKQDTRQTATFRQQPPPMKACLSCHQQIHRNAPICPLCKAKSRSRNPKKPKRKQDE
- soluble on expression in E. coli: not soluble

Sequence: MGSDKIHHHHHHMIMLEKPTCRPNNPNFSSGPCSKRPGWTLEVLKNALVGRSHRSREAALRLAEIVDLTREVLEVPSDYRIGIVPASDTGAVEMSLWSLLGERGVDMAAWESFGSGWITDVVEKLKLSDVRRFEAPYGELPDLTQMDFDRDVVFTWNGTTSGVRIPNADFIPERRAGLTICDATSAAFAQNLDFSKLDVVTFSWQKVLGGEAAHGMLILSPRAVERLESYVPTWPMPQIFCLTKDGKLNENIFKGVTINTPSLLCIEDFLDALKWAKAQGGLHALMARVEKNFAVLDAFVRKTPWLEYLAKDPQVRSNTSVCLDIVDPVVTALDTEKRVSFIKAIVNRLDEEEAAYDIGSYRDAPPGLRIWTGITIEASDLEILTSWLEWAFQVEKAQL
- soluble on expression in E. coli: not soluble

Sequence: MGSDKIHHHHHHMKKKIVVLLPMKANSTRVKGKNFRDFCGKPLFRWILDSLLAVEDIDQIVINTDARDILAENGLVGTDRILIRDRKKEICGDEVSMNRVLADDVENVEADIYLMTHTTNPLLSSNTIKQAINQYNEELASASADSLFTVNKIQTRFYTAKCEPINHDPDNLIPTQDLEPWFEENSNLYLFNRESFAKTNARIGAKPSMMVSPAMECSDIDTPDDWDQAVVMTHYMLEKGFVKL
- soluble on expression in E. coli: not soluble

Sequence: MRARIICGFRLVSETGSGSSSSDLTSASGASQWGNSSRSHWLKRWCASCSSAPEISNWQLSPASVSVPISARALLALPCGQCAGYATQFVMKKYYTAFQRGLPDAHVRRLEHHHHHH
- soluble on expression in E. coli: not soluble

Sequence: MSIRSLGYLRIEATDMAAWREYGLKVLGMVEGKGAPEGALYLRMDDFPARLVVVPGEHDRLLEAGWECANAEGLQEIRNRLDLEGTPYKEATAAELADRRVDEMIRFADPSGNCLEVFHGTALEHRRVVSPYGHRFVTGEQGMGHVVLSTRDDAEALHFYRDVLGFRLRDSMRLPPQMVGRPADGPPAWLRFFGCNPRHHSLAFLPMPTSSGIVHLMVEVEQADDVGLCLDRALRRKVPMSATLGRHVNDLMLSFYMKTPGGFDIEFGCEGRQVDDRDWIARESTAVSLWGHDFTVGARG
- soluble on expression in E. coli: soluble

Sequence: MIEAVKPKVLATRLIPNVAPELAGQLGLAQYQRSIGMITCNIDDSTYVALDEATKKADVAVVYAKSFYAGAAHASGPRSGEVIGILAAANPADVRAGIDACIAYLENEAFFYSHDGGKTAWFPHTISSTGSYLSQIAGIPEGEPLAYLIAPPLEAIYGIDAALKAADVAMKVLYGPPTETNFGGALLTGTQSACRAACEDFQRAVIDVAENGMKY
- soluble on expression in E. coli: not soluble

Sequence: MKHFDFSLRIWPISLWFVKHSGVKNPMNEVIIREITSEDKEMFLCAMQSSQALHHPWVKAPIIPEEFDEYFSRYQKPNQKSYLLLSDNNLAGVFNISEIVRGYFQNAYLGFYVVAAYAGKGYMSTGLKLILTKVFKDMGLHRLEANIQPENTRSIWLVKKNGFRYEGFSPRYLRVNDVWQGHEHWAMTYEDFIKDNNEVLEKDHIDIVAYNTEWPLLAKAEMVKLRASFPANSVIDIQHVGSTAIPGMASKPIIDIQIAVRSLEEMKIIAVPILQKLDYEYWEDNPDPERMFFVKGMPPYGNGRTHHVHIVEASSRHWKGKTFFRDYLLSHPEAAEKYQQLKIKLAQEHKYDREQYTDAKSEFINQILKLAQN
- soluble on expression in E. coli: not soluble

Sequence: MGSDKIHHHHHHMKEYRIRPREANLSFLEDLDEEQRRAVVESEGRCIVIAGPGSGKTRVITYKIAYLLANGVDPSRILLVTFTRAAAREMVERAKAVTGRELSEMLAGTFHHVCNHFLRKYAPYVGLERNYSILDREDAESLMRHARSKYLERKSKEERKNFPQPSVLMAIYSYMKNTLKSLRESIVVKNPKFLDLKEEISEIFDLYEQEKRSQNVVDYEDLLFYAYRLFEENKEIRDREAERFLWILVDEFQDTNYVQYKIVEHLSSKHGNILAVGDDAQSIYSFRGARYENVEDFIRVPGTKIFKIQTNYRSTESIVKFINAMLPRKSVPKELKPVKKDGMKPVVVKTWDRYEEARFVSQRILELIEEGFKPEEIAVLYRSHSHSLELQMELVRSRIDFRVLSGPRFTESAHVKDVLSFLRIVQNPRDKSAWLRAAKLFYGIGDRTASKIADLASAYVEEGLDPFQELKKVSFSGEYSRFIDILDQIRKLDSPGEMIERVLSSFYSEYLEARYPDFREREMDLERLVEIASRYTSLESFLTDLAVTENVEIEREISQKEGKVTLTTVHQAKGLEWRVVFVISVNPGDFPNYFAISEGNLDEEERIFYVAITRAKEQLYISYQVTGTSYPYRGNRFIMRSGENFIDRIPLELVEFWEVK
- soluble on expression in E. coli: not soluble

Sequence: MSLVSGFSVTLGEATSSNPSYKSAVMDYFKAKTDKDLQSADIKIVTASEVNEVSRGVTGRVYSPSQILSCAMVDLSYSDGIKVSVDTSKIRVVTPEMYASALRSSGIDRGYVVVTSPVPASGEAALAGVLKSYEIAVGEQIPEEAKRVSVEEIYLQSRLVNETNATGDRVAELFDEVKNRTQSQNLQDPADIQRVVVDVSQQMNINLTETQVQQVADSVAASQRVQGSLTEFKQRLEGVSQQVGGSGILDQIYAFLQSIYNYIMGIASPEGHHHHHH
- soluble on expression in E. coli: soluble

Sequence: MLARSARLLHSAELAANAIRAASGAPATAAAAEASFPSTDDVAAKTKKTGNRIKTFEIYRFNPEAPGAKPTVQKFDVDLDQCGTMILDALIKIKNEVDPTLTFRRSCREGICGSCAMNIGGQNTLACICKIDSDTSKSTKIYPLPHMFVVKDLVPDMNLFYAQYASIQPWIQKKTPLTLGEKQMHQSVAERDRLDGLYECILCACCSTSCPSYWWNADKYLGPAVLMQAYRWVIDSRDDYATERLHRMHDSFSAFKCHTIMNCTKTCPKHLNPAKAIGEIKSLLTGFTSKPAAEPSAF
- soluble on expression in E. coli: not soluble

Sequence: MSLRINGQAELSGANTFLQAQVQLTGEVEIKLQKPLQLTAAKAATEIHLRIPDFVVWKDLFESTPFAVPAPLHVLTGDIELDVHAQLTDLDSPLQADATAQSRLSSKNQKLFVKATADLETLGKILKPRGLKVHADVVLQDVHLQAPPLRLAVPPQVLPDKRFVMRKDLDIIEEEKPAPTSRIPFELLWSVNIKTEKPVLISSNLLQSPVPVALDMQVQSDRKPQGKVMVQSFPFEFFRKKATVNNVDLIFHPDTVAPELSGKISYSNPEVNIRILLLGNTQRPIVNLESDPQLNQQQILSVLLFDKSLDELNEDEVNSTSNMSRAVSDGALGLFSLMFLSSTPIQSISYDPNSQSYTARMRLDDNTTFSMQSNMTEQRQFTLRRRLGGNWSVRTELSQEDSRADVVQTLLEWMRRFEGHHHHHH
- soluble on expression in E. coli: not soluble

Sequence: MEVRGMDTIGHHYIVEAAGCDPNVIGDANKIREIFLEAAKRGNMEVKASYFFKFSPMGVSGVVIVAESHISVHTWPEKGYAALDVYTCGENADPEKAVDYILEQFKAQYAHVSEIKRGIEEEDRTFTHTILTWEERLDRRNGKP
- soluble on expression in E. coli: soluble

Sequence: MGSDKIHHHHHHMVASKQGLDLFQASGEPYEIGYRLGELARPVFAGYMRQSRAWQAVRRWRGAPFVHKLREAAHAHFPALLVELDGMAAGLGWTAEDMFLWNCRGELIHNVPDGCTTLAAHVGDTRFIAHNEDGDPFLGERCALVEVRPAGKPGFVSFHYPGSLPGHTFAASRAGVVQAINNLRIRAPVAGVPRMILARAVLDAASLDEALHILRDTPAASGFHHTLGCAGDARLVSVEVSARRCSVQTVPNLYGHANHMIHPGCEAEAQIVTDSSRERQARVNALLPALSRPLQPAALLDVLQDRAPSGLPIYRDDPLDPDGENTLATALFEIGGAGVSMKVYRQGQRAFDAFIARAACGQTGA
- soluble on expression in E. coli: not soluble

Sequence: MDPLSWLYARQGRFAPGLERIRAFLARLGHPEEAYPVALVGGTNGKGTTARALAAILEEAGFRVGLYTSPHLVDFRERIQVQGRPIPEEKLLALLAELRPHAERLEASFFEVATALALLHFAREGVEFAVLEVGLGGRLDATNATEPVLSVVTNVGHDHLEVLGPTLKDVAREKAGIFRGGVPALTAARGEGLGVLRAEALGRKNPPWVLGEDFHAEGVEALPQGLAFTLRLERTGEALRLTARLLGPHQAENLALAALSGRLLGAGWEAVKRGVARAENPGRLQRLLWRGRELLLDGAHNPEGALALREALRFHGLLPAAFVLGFSRDKDHAAMAEALRGLGPVVLTRYASPRSEDPRALLPLFPGAKVVEDPLEALEEAFSREGRVVVAGSLYLVGEVLRRLEGLPAEERWQ
- soluble on expression in E. coli: soluble

Sequence: MGSDKIHHHHHHMQFGAKPLFENISVKFGGGNRYGLIGANGCGKSTFMKILTGDLEPSSGNVSLDVNERMGKLNQDQFAYEKFSVVDTVIMGHRELWKVKQERDRIYSLPEMTEEDGIKVSELEMEFAEMDGYTAESRAGDLLLGVGIGTEQHFGLMSQIAPGFKLRVLLAQALFSDPDLLLLDEPTNNLDIDTIRWLQDMLNQRNSTMVIISHDRYFLNSVCTHMADLDYGELRVYPGNYDEYMMAATQARERLQSDNAKKKAQIAELQTFVARFSANASKAKQATSRAKQIDKIKLDDIKASSRVNPFIRFEQEKKLFRNALIVENLAKGYDKPLFSNLNLMVEVGERIAILGENGVGKTTLMRTLVHDIPQDEGTIQWSENANIGYYAQDHEADFANDMTLFDWMSQWRKPEDDDQSVRAILGRMLFGSDDIKKSVTVLSGGEKGRMYFGKLIMQKANILMLDEPTNHMDMESIESLNNALEMYEGTLMFVSHDRAFVSSLATRILEVTANGVNDFKGTYDEFLRSKGIDA
- soluble on expression in E. coli: not soluble

Sequence: MGSDKIHHHHHHMKQELALFIKKIIDLPAAEEKKLLAITRVYKVPKGDFYIQIGQIPKKFAFVAKGLFRYVYIDSKGNEFTKNFVPENNFALAYSSMIRHEVSKMAIEALEDSIICEIDYTDWLTLKKGNACWNIFLITILENAFTIKENRERDLLLLDAEQRYETFRQEFPALETRVKQHLIASYLGISPVSLSRIRKKRT
- soluble on expression in E. coli: not soluble

Sequence: MGSDKIHHHHHHMTKDMQTFTLVPQGSLEGYIRAANAYPMLTAEEERALAERLHYQGDLEAAKHLILSHLRFVIHVARNYSGYGLPQADLIQEGNIGLMKAVRRFNPEVGVRLVSFAVHWIKAEIHEYVLRNWRIVKVATTKAQRKLFFNLRKAKTRLGWFNQDEVELVARELGVTTKDVREMESRMAAQDMTFDPTPEEDSHDGKAMSPMLYLQDKSSDFADGIEEDNWDTHAADKLTYALEGLDERSQHIIRARWLDDDNKSTLQELADQYGVSAERVRQLEKNAMKKLRAAIEA
- soluble on expression in E. coli: not soluble
